Source: patent publication US20070207507A1
Bridges are numbered along the chain shown (N, C = ends). Where no end group is shown, it is not given here.

Assays:
TAG-72 = test: 99mTc-labeled phage on LS-174T colon cancer cells expressing TAG-72
myeloperoxidase [1] = test: SPR (Biacore 1000), biotinylated myeloperoxidase on a streptavidin chip, peptide at 1 uM, fitted curve
myeloperoxidase [2] = test: SE-HPLC on a Superose-12 column, 2 hours incubation
myeloperoxidase [3] = test: SE-HPLC on a Superose-12 column, 5 min incubation
myeloperoxidase [4] = test: 99mTc-phage incubated with 125I-myeloperoxidase, separated on a spin column / Sepharose 6B column

Chain of myeloperoxidase (P05164 165-745): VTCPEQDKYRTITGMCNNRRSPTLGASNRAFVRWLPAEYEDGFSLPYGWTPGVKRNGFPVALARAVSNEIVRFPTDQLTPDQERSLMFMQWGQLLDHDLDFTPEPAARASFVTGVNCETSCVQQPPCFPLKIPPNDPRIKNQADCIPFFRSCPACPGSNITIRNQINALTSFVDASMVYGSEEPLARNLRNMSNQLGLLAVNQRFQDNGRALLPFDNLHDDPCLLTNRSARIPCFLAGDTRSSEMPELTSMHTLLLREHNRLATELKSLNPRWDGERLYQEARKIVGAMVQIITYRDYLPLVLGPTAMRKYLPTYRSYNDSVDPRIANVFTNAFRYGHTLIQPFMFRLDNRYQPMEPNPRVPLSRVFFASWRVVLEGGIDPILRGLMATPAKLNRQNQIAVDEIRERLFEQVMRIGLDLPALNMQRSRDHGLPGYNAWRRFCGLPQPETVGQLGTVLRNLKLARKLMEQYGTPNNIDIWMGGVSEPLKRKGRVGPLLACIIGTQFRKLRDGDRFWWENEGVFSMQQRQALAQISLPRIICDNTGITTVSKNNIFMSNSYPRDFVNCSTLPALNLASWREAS

Row | Binder | Relative Binding (fold over control phage A3-12) (TAG-72) [fold] | Relative Binding (% bound after subtraction of control phage MPO-4) (myeloperoxidase [4]) [%] | further results
1 | NLIWCRKEFARCTSDM (disulfide 5-12 (inferred); also: displayed on phage, cysteine-constrained, 99mTc-labelled) [phage clone A3-19 (f88-4/Cys6 phage displaying a 16 mer cysteine-constrained peptide in pVIII)] | 1.5 | – | –
2 | RSGQCHDDTWNCLACVGGSGGGC (also: cysteine-constrained, Cys pairing not given here) [MPO-17 twenty-three mer synthetic polypeptide] | – | – | Kd (myeloperoxidase [1]): 900 nM; UV peak for the enzyme, % of total protein after 2 hours incubation (% of total protein) (myeloperoxidase [2]): 46; UV peak for the enzyme, % of total protein at 5 min of incubation (% of total protein) (myeloperoxidase [3]): 16
3 | HVLGCSYATNSCAHNA (disulfide 5-12; also: phage labelled with 99mTc via MAG3) [phage clone MPO-6 (f88-4/Cys6 phage displaying a 16 mer cysteine-constrained peptide in pVIII)] | – | 5.8 | –
4 | AMPVCSLDRKACTAYQ (disulfide 5-12; also: phage labelled with 99mTc via MAG3) [phage clone MPO-1 (f88-4/Cys6 phage displaying a 16 mer cysteine-constrained peptide in pVIII)] | – | 3.9 | –
5 | LKNYCRKCSNRCTPTG (disulfide (positions not given here); also: displayed on phage, cysteine-constrained, 99mTc-labelled) [phage clone A3-21 (f88-4/Cys6 phage displaying a 16 mer cysteine-constrained peptide in pVIII)] | 1 | – | –
6 | RSGQCHDDTWNCLACV (disulfide 5-12; also: phage labelled with 99mTc via MAG3) [phage clone MPO-17 (f88-4/Cys6 phage displaying a 16 mer cysteine-constrained peptide in pVIII)] | – | 8 | –
7 | TVMLCNPMEQGCRWMC (disulfide 5-12; also: phage labelled with 99mTc via MAG3) [phage clone MPO-15 (f88-4/Cys6 phage displaying a 16 mer cysteine-constrained peptide in pVIII)] | – | 4.5 | –
8 | MNYYCHQTTKTCRTHS (disulfide 5-12 (inferred); also: displayed on phage, cysteine-constrained, 99mTc-labelled) | – | – | Relative Binding (the control phage, the reference itself) (TAG-72): 1 fold
9 | NPGTCKDKWIECLLNG (disulfide 5-12 (inferred); also: displayed on phage, cysteine-constrained, 99mTc-labelled in binding assays) [phage clone A3-10 (f88-4/Cys6 phage displaying a 16 mer cysteine-constrained peptide in pVIII)] | 4.3 | – | –
